Assay results taken from article PMC7215426.

Assays:
[1] = biological target: T1, C-reactive protein (CRP) (human) (UniProt P02741); assay: SPR; settings: Ugu; SPR (ProteON XPR36) at 25 C in SB: 40 mM HEPES pH 7.5, 125 mM NaCl, 5 mM KCl, 1 mM MgCl2, 0.01% Tween 20; aptamer immobilized via 3' A20/T20 hybridized to …
T1 sequence: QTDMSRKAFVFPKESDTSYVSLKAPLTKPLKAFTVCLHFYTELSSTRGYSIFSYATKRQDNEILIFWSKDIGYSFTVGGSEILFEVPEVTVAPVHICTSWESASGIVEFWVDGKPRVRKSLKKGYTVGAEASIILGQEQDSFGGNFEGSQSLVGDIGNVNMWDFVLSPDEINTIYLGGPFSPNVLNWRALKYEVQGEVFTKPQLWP

[2] = biological target: Lactate dehydrogenase-5 (LDH-5) (human) (UniProt P00338); assay: SPR; settings: Aad; SPR (ProteON XPR36) at 25 C in SB: 40 mM HEPES pH 7.5, 125 mM NaCl, 5 mM KCl, 1 mM MgCl2, 0.01% Tween 20; aptamer immobilized via 3' A20/T20 hybridized to …

Row | Sequence | Kd [1] [nM] | Kd [2] [nM]
1 | CGCACATCAGTTTAGCTAGTTCTGCCTTAATATGGTCGGTTAAGCGCA [CRP-Ugu4-3] | 0.0062 | 
2 | TGCTGCTGGCTCGTGAGACGGATATCAGGTCTCCTAAGGCTGGC [LDH-Aad1-3] |  | 0.235
